Assay results published in patent US20160047810A1 (INSTITUT PASTEUR, published 2016).

Key:
[1] = target: the molecule itself; assay: self-association, polymerization assay, ultracentrifugation and western blot
[2] = target: T1, FtsZ (purified, from pET11a-ftsZ), P0A9A6
T1 chain: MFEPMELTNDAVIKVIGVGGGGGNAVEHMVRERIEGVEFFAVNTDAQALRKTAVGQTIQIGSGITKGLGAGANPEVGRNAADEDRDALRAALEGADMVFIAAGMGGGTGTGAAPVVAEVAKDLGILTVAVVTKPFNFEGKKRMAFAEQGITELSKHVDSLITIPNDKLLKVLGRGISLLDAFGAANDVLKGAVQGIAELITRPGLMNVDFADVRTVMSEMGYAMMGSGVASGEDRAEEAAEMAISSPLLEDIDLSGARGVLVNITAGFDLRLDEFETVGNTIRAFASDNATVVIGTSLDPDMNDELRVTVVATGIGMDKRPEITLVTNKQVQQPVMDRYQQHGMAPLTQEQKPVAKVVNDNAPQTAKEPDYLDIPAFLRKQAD

B1: FtsZ (purified, from pET11a-ftsZ) (other)
chain: MFEPMELTNDAVIKVIGVGGGGGNAVEHMVRERIEGVEFFAVNTDAQALRKTAVGQTIQIGSGITKGLGAGANPEVGRNAADEDRDALRAALEGADMVFIAAGMGGGTGTGAAPVVAEVAKDLGILTVAVVTKPFNFEGKKRMAFAEQGITELSKHVDSLITIPNDKLLKVLGRGISLLDAFGAANDVLKGAVQGIAELITRPGLMNVDFADVRTVMSEMGYAMMGSGVASGEDRAEEAAEMAISSPLLEDIDLSGARGVLVNITAGFDLRLDEFETVGNTIRAFASDNATVVIGTSLDPDMNDELRVTVVATGIGMDKRPEITLVTNKQVQQPVMDRYQQHGMAPLTQEQKPVAKVVNDNAPQTAKEPDYLDIPAFLRKQAD
notes: Used as GTP-induced polymers in the proteolysis assays; also called FtsZ polymers; Z-ring
binding result [1]: binds

B2: E. coli K12 Lop1-H6 (protein)
chain: MQSVTPTSQYLKALNEGSHQPDDVQKEAVSRLEIIYQELINSTPPAPRTSGLMARVGKLWGKREDTKHTPVRGLYMWGGVGRGKTWLMDLFYQSLPGERKQRLHFHRFMLRVHEELTALQGQTDPLEIIADRFKAETDVLCFDEFFVSDITDAMLLGGLMKALFARGITLVATSNIPPDELYRNGLQRARFLPAIDAIKQHCDVMNVDAGVDYRLRTLTQAHLWLSPLHDETRAQMDKLWLALAGGKRENSPTLEINHRPLATMGVENQTLAVSFTTLCVDARSQHDYIALSRLFHTVMLFDVPVMTRLMESEARRFIALVDEFYERHVKLVVSAEVPLYEIYQGDRLKFEFQRCLSRLQEMQSEEYLKREHLAG
FtsZ polymer proteolysis assay (ultracentrifugation, western blot) [2]: The FtsZ polymers incubation with Lop1 lead to their slight degradation at t=3 min in an ATP-dependent manner

B3: E. coli K12 Lop1K84A-H6 (protein)
chain: MQSVTPTSQYLKALNEGSHQPDDVQKEAVSRLEIIYQELINSTPPAPRTSGLMARVGKLWGKREDTKHTPVRGLYMWGGVGRGATWLMDLFYQSLPGERKQRLHFHRFMLRVHEELTALQGQTDPLEIIADRFKAETDVLCFDEFFVSDITDAMLLGGLMKALFARGITLVATSNIPPDELYRNGLQRARFLPAIDAIKQHCDVMNVDAGVDYRLRTLTQAHLWLSPLHDETRAQMDKLWLALAGGKRENSPTLEINHRPLATMGVENQTLAVSFTTLCVDARSQHDYIALSRLFHTVMLFDVPVMTRLMESEARRFIALVDEFYERHVKLVVSAEVPLYEIYQGDRLKFEFQRCLSRLQEMQSEEYLKREHLAG
FtsZ polymer proteolysis assay (ultracentrifugation, western blot) [2]: no degradation of FtsZ polymers was observed with LOp1 K84A

B4: K12 H6-Lop1Δ1-59Δ303-375 (protein)
chain: WGKREDTKHTPVRGLYMWGGVGRGKTWLMDLFYQSLPGERKQRLHFHRFMLRVHEELTALQGQTDPLEIIADRFKAETDVLCFDEFFVSDITDAMLLGGLMKALFARGITLVATSNIPPDELYRNGLQRARFLPAIDAIKQHCDVMNVDAGVDYRLRTLTQAHLWLSPLHDETRAQMDKLWLALAGGKRENSPTLEINHRPLATMGVENQTLAVSFTTLCVDARSQHDYIALSRLFHTVMLFD
FtsZ polymer proteolysis assay (1 min at 30° C., western blot of the pellet) [2]: the 73aa C-terminal fragment of Lop1Δ1-59 was required for the proteolytic degradation of FtsZ polymers

B5: E. coli K12 Lop1Δ1-59-H6 (protein)
chain: WGKREDTKHTPVRGLYMWGGVGRGKTWLMDLFYQSLPGERKQRLHFHRFMLRVHEELTALQGQTDPLEIIADRFKAETDVLCFDEFFVSDITDAMLLGGLMKALFARGITLVATSNIPPDELYRNGLQRARFLPAIDAIKQHCDVMNVDAGVDYRLRTLTQAHLWLSPLHDETRAQMDKLWLALAGGKRENSPTLEINHRPLATMGVENQTLAVSFTTLCVDARSQHDYIALSRLFHTVMLFDVPVMTRLMESEARRFIALVDEFYERHVKLVVSAEVPLYEIYQGDRLKFEFQRCLSRLQEMQSEEYLKREHLAG
FtsZ polymer proteolysis assay (ultracentrifugation, western blot) [2]: incubation of FtsZ polymers with Lop1Δ1-59 in the absence of ATP caused its significant degradation (t=1 min, no FtsZ signal in the soluble fraction)
